Data reported in US20200062842A1.

Assays:
[1] = target: human MUC1 on the surface of MUC1 expressing tumor cells (human) (UniProt P15941); test: flow cytometry, FITC-conjugated antibody, MDA-453 cells; cell looks truncated
[2] = target: human MUC1 on the surface of MUC1 expressing tumor cells (human) (UniProt P15941); test: flow cytometry, FITC-conjugated antibody, U266 cells; cell looks truncated
[3] = target: human MUC1 on the surface of MUC1 expressing tumor cells (human) (UniProt P15941); test: flow cytometry, FITC-conjugated antibody, MDA-231 cells; cell looks truncated
[4] = target: human MUC1 on the surface of MUC1 expressing tumor cells (human) (UniProt P15941); test: flow cytometry, FITC-conjugated antibody, MCF7 cells; cell looks truncated
[5] = target: human MUC1 on the surface of MUC1 expressing tumor cells (human) (UniProt P15941); test: flow cytometry, FITC-conjugated antibody, Raji cells; cell looks truncated
[6] = target: human MUC1 on the surface of MUC1 expressing tumor cells (human) (UniProt P15941); test: FACS, bone marrow aspirate of MM patient P #I
[7] = target: human MUC1 on the surface of MUC1 expressing tumor cells (human) (UniProt P15941); test: FACS, bone marrow aspirate of MM patient P #II
[8] = target: human MUC1 on the surface of MUC1 expressing tumor cells (human) (UniProt P15941); test: flow cytometry, FITC-conjugated antibody, RPMI8226 cells; cell looks truncated
[9] = target: human MUC1 on the surface of MUC1 expressing tumor cells (human) (UniProt P15941); test: flow cytometry, FITC-conjugated antibody, ARH-77 cells; cell looks truncated
[10] = target: human MUC1 on the surface of MUC1 expressing tumor cells (human) (UniProt P15941); test: FACS, bone marrow aspirate of MM patient P #3
[11] = target: human MUC1 on the surface of MUC1 expressing tumor cells (human) (UniProt P15941); test: flow cytometry, FITC-conjugated antibody, OVCAR-3 cells; cell looks truncated
[12] = target: human MUC1 on the surface of MUC1 expressing tumor cells (human) (UniProt P15941); test: flow cytometry, FITC-conjugated antibody, RPMI8226 cells; negative control
[13] = target: human MUC1 on the surface of MUC1 expressing tumor cells (human) (UniProt P15941); test: flow cytometry, FITC-conjugated antibody, Ramos cells; negative control
[14] = target: human MUC1 on the surface of MUC1 expressing tumor cells (human) (UniProt P15941); test: flow cytometry, FITC-conjugated antibody, U266 cells; negative control
[15] = target: human MUC1 on the surface of MUC1 expressing tumor cells (human) (UniProt P15941); test: flow cytometry, FITC-conjugated antibody, ARH-77 cells; negative control
[16] = target: human MUC1 on the surface of MUC1 expressing tumor cells (human) (UniProt P15941); test: flow cytometry, FITC-conjugated antibody, Raji cells; negative control
[17] = target: human MUC1 on the surface of MUC1 expressing tumor cells (human) (UniProt P15941); test: flow cytometry, FITC-conjugated antibody, MDA-453 cells; negative control
[18] = target: human MUC1 on the surface of MUC1 expressing tumor cells (human) (UniProt P15941); test: flow cytometry, FITC-conjugated antibody, MCF7 cells; negative control
[19] = target: human MUC1 on the surface of MUC1 expressing tumor cells (human) (UniProt P15941); test: flow cytometry, FITC-conjugated antibody, OVCAR-3 cells; negative control
[20] = target: human MUC1 on the surface of MUC1 expressing tumor cells (human) (UniProt P15941); test: flow cytometry, FITC-conjugated antibody, MDA-231 cells; negative control

Sequence of UniProt P15941 (P15941 24-1255): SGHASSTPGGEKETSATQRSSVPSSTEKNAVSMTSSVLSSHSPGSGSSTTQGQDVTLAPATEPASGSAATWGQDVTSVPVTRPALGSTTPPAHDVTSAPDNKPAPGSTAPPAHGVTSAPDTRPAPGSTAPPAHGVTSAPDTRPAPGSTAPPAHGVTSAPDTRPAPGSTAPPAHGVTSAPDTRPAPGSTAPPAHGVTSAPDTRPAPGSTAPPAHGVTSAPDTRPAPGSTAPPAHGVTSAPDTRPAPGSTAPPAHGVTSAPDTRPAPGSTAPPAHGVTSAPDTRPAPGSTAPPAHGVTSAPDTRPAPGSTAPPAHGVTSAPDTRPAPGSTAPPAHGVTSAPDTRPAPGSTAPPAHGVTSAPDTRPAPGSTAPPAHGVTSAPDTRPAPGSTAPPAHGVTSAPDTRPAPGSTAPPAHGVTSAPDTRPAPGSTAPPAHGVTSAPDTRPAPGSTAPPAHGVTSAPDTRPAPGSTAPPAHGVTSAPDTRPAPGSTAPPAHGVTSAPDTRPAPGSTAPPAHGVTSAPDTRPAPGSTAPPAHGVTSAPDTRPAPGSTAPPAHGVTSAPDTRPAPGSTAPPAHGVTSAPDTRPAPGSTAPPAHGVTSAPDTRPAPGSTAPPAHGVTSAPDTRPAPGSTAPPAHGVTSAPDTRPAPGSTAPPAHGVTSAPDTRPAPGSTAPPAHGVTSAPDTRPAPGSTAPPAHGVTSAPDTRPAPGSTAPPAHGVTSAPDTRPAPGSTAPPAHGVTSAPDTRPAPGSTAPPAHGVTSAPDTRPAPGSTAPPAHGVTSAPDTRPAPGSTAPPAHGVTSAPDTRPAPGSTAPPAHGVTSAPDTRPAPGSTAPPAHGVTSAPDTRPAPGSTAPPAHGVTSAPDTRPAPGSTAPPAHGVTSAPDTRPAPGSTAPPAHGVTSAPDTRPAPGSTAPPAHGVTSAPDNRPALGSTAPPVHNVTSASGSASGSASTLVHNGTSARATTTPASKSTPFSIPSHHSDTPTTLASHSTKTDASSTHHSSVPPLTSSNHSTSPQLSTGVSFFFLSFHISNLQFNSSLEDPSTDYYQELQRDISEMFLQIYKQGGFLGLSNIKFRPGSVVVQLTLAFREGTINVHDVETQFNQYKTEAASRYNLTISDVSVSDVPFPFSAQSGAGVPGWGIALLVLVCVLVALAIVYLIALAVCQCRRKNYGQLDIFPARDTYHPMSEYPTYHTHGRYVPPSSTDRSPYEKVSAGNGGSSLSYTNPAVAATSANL

geometric mean (FACS) [1]	geometric mean (FACS) [2]	geometric mean (FACS) [3]	geometric mean (FACS) [4]	geometric mean (FACS) [5]	% of CD138 positive cells immunoreactive [6]	% of CD138 positive cells immunoreactive [7]	geometric mean (FACS) [8]	geometric mean (FACS) [9]	% of cells immunoreactive [10]	geometric mean (FACS) [11]	geometric mean (FACS) [12]	geometric mean (FACS) [13]	geometric mean (FACS) [14]	geometric mean (FACS) [15]	geometric mean (FACS) [16]	geometric mean (FACS) [17]	geometric mean (FACS) [18]	geometric mean (FACS) [19]	geometric mean (FACS) [20]	Substance
80	39	66	4	3	78.3%	59.2%	585	68	0.37%	456	–	–	–	–	–	–	–	–	–	H23 anti-MUC1 TRA monoclonal antibody
–	–	–	–	–	–	–	–	–	–	–	745	198	485	176	131	182	230	370	245	Mouse control (species-specific isotype control, FITC conjugated) (antibody)
–	–	–	–	–	–	–	–	–	–	–	738	111	471	161	128	165	236	418	215	Rabbit control (species-specific isotype control, FITC conjugated) (antibody)
